Measured values: article PMC3474958, “pH-sensitive Self-associations of the N-terminal Domain of NBCe1-A Suggest a Compact Conformation under Acidic Intracellular Conditions” (Protein and Peptide Letters, 2012)

B1: cytoplasmic, N-terminal domain of NBCe1-A (residues 1 to 362) (domain or fragment, human, UniProt Q9Y6R1-2 1-362, looked up)
chain: MSTENVEGKPSNLGERGRARSSTFLRVVQPMFNHSIFTSAVSPAAERIRFILGEEDDSPAPPQLFTELDELLAVDGQEMEWKETARWIKFEEKVEQGGERWSKPHVATLSLHSLFELRTCMEKGSIMLDREASSLPQLVEMIVDHQIETGLLKPELKDKVTYTLLRKHRHQTKKSNLRSLADIGKTVSSASRMFTNPDNGSPAMTHRNLTSSSLNDISDKPEKDQLKNKFMKKLPRDAEASNVLVGEVDFLDTPFIAFVRLQQAVMLGALTEVPVPTRFLFILLGPKGKAKSYHEIGRAIATLMSDEVFHDIAYKAKDRHDLIAGIDEFLDEVIVLPPGEWDPAIRIEPPKSLPSSDKRKNM
notes: NBCe1-A, sodium-bicarbonate cotransporter variant 1A (SLC4 family), cytoplasmic N-terminal domain, residues 1 to 362; theoretical mass of the monomer 40.6 kDa, of the dimer 81.2 kDa; Exists in a concentration- and pH-dependent equilibrium of monomer, dimer and higher-order clusters; also called NtNBCe1-A; NtNBCe1

Columns and labels:
[1] = target: NtNBCe1-A (cytoplasmic N-terminal domain of the electrogenic Na/HCO3 cotransporter NBCe1-A, SLC4A4) (UniProt Q9Y6R1); assay: Dynamic light scattering (DLS), batch mode; settings: pH slightly acidic (6.5 by the Figure 1 caption and Discussion); 150 mM NaCl; 50mM Tris at every pH
[2] = target: NtNBCe1-A (cytoplasmic N-terminal domain of the electrogenic Na/HCO3 cotransporter NBCe1-A, SLC4A4) (UniProt Q9Y6R1+Q9Y6R1); assay: Dynamic light scattering (DLS), batch mode; settings: pH 7.4; 150 mM NaCl; 50mM Tris at every pH
[3] = target: NtNBCe1-A (cytoplasmic N-terminal domain of the electrogenic Na/HCO3 cotransporter NBCe1-A, SLC4A4) (UniProt Q9Y6R1); assay: Size-exclusion chromatography with multi-angle light scattering and refractive index detection (MALS-SEC); settings: pH 11.5; 150mM NaCl; 50mM Tris at every pH analysed
[4] = target: the molecule itself; assay: SEC-MALS; ~2 mg/ml (0.5 ml) on Superdex-200 HR 10/30; 50 mM Tris, 150 mM NaCl, 1 mM TCEP; neutral pH; monomer to dimer
[5] = target: the molecule itself; assay: SEC-MALS; neutral pH, 0 mM against 10 mM bisulfite

NtNBCe1-A (cytoplasmic N-terminal domain of the electrogenic Na/HCO3 cotransporter NBCe1-A, SLC4A4) (UniProt Q9Y6R1), sequence (Q9Y6R1 whole entry, the tested form may be a part): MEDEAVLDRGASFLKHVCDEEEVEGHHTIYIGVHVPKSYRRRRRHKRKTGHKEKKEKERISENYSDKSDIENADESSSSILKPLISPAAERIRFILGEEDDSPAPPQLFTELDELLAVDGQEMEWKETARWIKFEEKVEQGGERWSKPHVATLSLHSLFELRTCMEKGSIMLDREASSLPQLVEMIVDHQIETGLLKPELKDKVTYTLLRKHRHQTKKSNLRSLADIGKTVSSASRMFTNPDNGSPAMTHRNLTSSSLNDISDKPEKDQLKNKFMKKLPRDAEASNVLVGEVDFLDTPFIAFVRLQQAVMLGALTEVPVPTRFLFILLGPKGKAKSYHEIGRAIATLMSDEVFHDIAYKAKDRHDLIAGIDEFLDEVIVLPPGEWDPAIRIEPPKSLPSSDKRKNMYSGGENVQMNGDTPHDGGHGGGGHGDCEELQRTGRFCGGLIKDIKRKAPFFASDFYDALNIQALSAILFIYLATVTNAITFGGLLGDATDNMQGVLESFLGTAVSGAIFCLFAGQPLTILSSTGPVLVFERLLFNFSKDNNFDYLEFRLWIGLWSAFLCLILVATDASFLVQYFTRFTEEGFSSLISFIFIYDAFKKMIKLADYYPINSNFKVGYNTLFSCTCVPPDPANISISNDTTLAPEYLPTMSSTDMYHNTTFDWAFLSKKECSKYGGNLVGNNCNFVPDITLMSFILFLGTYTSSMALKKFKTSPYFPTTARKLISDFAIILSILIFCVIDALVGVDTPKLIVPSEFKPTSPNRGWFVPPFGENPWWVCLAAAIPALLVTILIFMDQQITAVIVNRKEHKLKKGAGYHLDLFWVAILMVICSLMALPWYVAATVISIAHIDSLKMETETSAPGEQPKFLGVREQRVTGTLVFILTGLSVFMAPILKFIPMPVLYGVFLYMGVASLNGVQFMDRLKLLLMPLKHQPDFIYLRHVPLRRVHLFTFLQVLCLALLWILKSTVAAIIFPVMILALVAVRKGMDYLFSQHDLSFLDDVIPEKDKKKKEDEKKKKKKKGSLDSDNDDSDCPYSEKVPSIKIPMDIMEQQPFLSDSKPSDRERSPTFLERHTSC
NtNBCe1-A (cytoplasmic N-terminal domain of the electrogenic Na/HCO3 cotransporter NBCe1-A, SLC4A4) (UniProt Q9Y6R1+Q9Y6R1), sequence (Q9Y6R1 whole entry, looked up, the tested form may be a part, one chain of several): as the sequence (Q9Y6R1 whole entry, the tested form may be a part) above

| Molecule | average hydrodynamic radius (DLS) [1] | average hydrodynamic radius (DLS) [2] | average molar mass (MALS-SEC) [3] | stoichiometry N [4] | fold increase of high-order self-associations with bisulfite against none [5] [fold] |
| --- | --- | --- | --- | --- | --- |
| NtNBCe1-A (cytoplasmic N-terminal domain of the electrogenic Na/HCO3 cotransporter NBCe1-A, SLC4A4) | 4.6 nm (theoretical 4.2 nm for pure dimers); monodisperse, Pd < 10% | increase to 5.0 nm at neutral pH (theoretical 5.6 nm for pure tetramers), consistent with a small amount of dimer-dimer interactions | 42.6 kDa (theoretical monomer 40.6 kDa); monomer predominates | – | – |
| B1 | – | – | – | 2 | ~2 |
